PMC3232247

Target: T1, RGSZ2 RH region (RGS box), recombinant, GST-free (murine)
T1 sequence (Q9QZB0 whole entry, looked up): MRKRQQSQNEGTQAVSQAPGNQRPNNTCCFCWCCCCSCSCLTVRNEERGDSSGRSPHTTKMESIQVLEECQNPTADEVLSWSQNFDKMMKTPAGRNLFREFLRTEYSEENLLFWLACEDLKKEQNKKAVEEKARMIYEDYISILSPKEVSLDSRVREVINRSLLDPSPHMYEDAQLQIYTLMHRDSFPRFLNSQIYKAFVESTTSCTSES

k cat of GTP hydrolysis by Gαi, single turnover, with RGSZ2 RH and free SUMO1 (4.0 with RH without SUMO1; 2.2 for Gαi alone): 0.0417 s⁻¹
Substance: SUMO1 (Small Ubiquitin-like MOdifier 1) (from UniProt P63165 1-97) (natural protein)
